Legend:
[1] = test system: PKGIα (analogue-sensitive C42S/M438G), cGMP-activated; experiment: Chemical genetic phosphoproteomic screen, cGMP-activated PKGIα C42S/M438G versus unactivated control; assay type: biochemical, human PKGIα; substrates in rat heart homogenate; settings: for Log2 fold change in phosphorylation, cGMP versus control: PKGIα C42S/M438G + 100 μM cGMP vs basal, 1 h, 30 °C, pH 7.5, rat heart homogenate, label-free LC–MS/MS, n=4, * P<0.05 Dunnett: all values except phospholamban S16; for log2 fold change cGMP vs Control: control = PKGIα C42S/M438G
How it was run: (§1)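 Substrates in rat left-ventricle homogenate (20 mg ml) are labelled by engineered Met438Gly PKGIα given a bulky N6-alkylated ATPγS analogue, either as disulfide-activated M438G (oxidized, DTT-free) or as cGMP-activated C42S/M438G. Covalent capture and LC–MS/MS identify sites relative to unactivated kinase.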

[2] = test system: PKGIα (analogue-sensitive M438G), disulfide-activated; experiment: Chemical genetic phosphoproteomic screen, disulfide-activated PKGIα M438G versus unactivated control; assay type: biochemical, human PKGIα; substrates in rat heart homogenate; settings: for Log2 fold change in phosphorylation, Disulfide versus control: disulfide-activated PKGIα M438G vs basal, 1 h, 30 °C, pH 7.5, rat heart homogenate, label-free LC–MS/MS, n=4, * P<0.05 Dunnett: only phospholamban S16; for log2 fold change Disulfide vs Control: control = PKGIα C42S/M438G
How it was run: as §1

Molecule | Log2 fold change in phosphorylation, cGMP versus control [1] | Log2 fold change in phosphorylation, Disulfide versus control [2] | log2 fold change cGMP vs Control [1] | log2 fold change Disulfide vs Control [2]
6-phosphofructokinase, liver type: PKGIα substrate, phospho site S775 (protein, UniProt P30835 2-780, looked up, phosphorylated at S775) ATP-dependent …: ATVDLEKLRMSGAGKAIGVLTSGGDAQGMNAAVRAVTRMGIYVGAKVFLIYEGYEGLVEGGENIKPANWLSVSNIIQLGGTIIGSARCKAFTTREGRLAAAYNLLQHGITNLCVIGGDGSLTGANIFRNEWGSLLEELVKEGKISESTAQNYAHLSIAGLVGSIDNDFCGTDMTIGTDSALHRIMEVIDAITTTAQSHQRTFVLEVMGRHCGYLALVSALASGADWLFIPEAPPEDGWENFMCERLGETRSRGSRLNIIIIAEGAIDRHGKPISSSYVKDLVVQRLGFDTRVTVLGHVQRGGTPSAFDRVLSSKMGMEAVMALLEATPDTPACVVSLSGNQSVRLPLMECVQVTKDVQKAMDEKRFDEAIQLRGRSFENNWKIYKLLAHQKVSKEKSNFSLAILNVGAPAAGMNAAVRSAVRTGISEGHTVYVVHDGFEGLAKGQVQEVGWHDVAGWLGRGGSMLGTKRTLPKPHLEAIVENLRTYNIHALLVIGGFEAYEGVLQLVEARGRYEELCIVMCVIPATISNNVPGTDFSLGSDTAVNAAMESCDRIKQSASGTKRRVFIVETMGGYCGYLATVTGIAVGADAAYVFEDPFNIHDLKANVEHMTEKMKTDIQRGLVLRNEKCHEHYTTEFLYNLYSSEGRGVFDCRTNVLGHLQQGGAPTPFDRNYGTKLGVKAMLWMSEKLRDVYRKGRVFANAPDSACVIGLRKKVVAFSSVTELKKETDFEHRMPREQWWLNLRLMLKMLAHYRISMADYVSGELEHVTRRTLSIDKGF | 4.13* | 1.48 |  | 
Alpha-2-macroglobulin receptor-associated protein: PKGIα substrate, phospho site S245 (protein, UniProt Q99068 34-360, looked up, phosphorylated at S245) Alpha-2-macroglobulin …: HGGKYSREKNEPEMAAKRESGEEFRMEKLNQLWEKAKRLHLSPVRLAELHSDLKIQERDELNWKKLKVEGLDGDGEKEAKLVHNLNVILARYGLDGRKDTQTVHSNALNEDTQDELGDPRLEKLWHKAKTSGKFSSEELDKLWREFLHYKEKIHEYNVLLDTLSRAEEGYENLLSPSDMTHIKSDTLASKHSELKDRLRSINQGLDRLRKVSHQGYGPATEFEEPRVIDLWDLAQSANFTEKELESFREELKHFEAKIEKHNHYQKQLEISHQKLKHVESIGDPEHISRNKEKYVLLEEKTKELGYKVKKHLQDLSSRVSRARHNEL | 2.64* | 0.32 |  | 
C-1-tetrahydrofolate synthase, cytoplasmic: PKGIα substrate, phospho site T545 (protein, UniProt P27653 1-935, looked up, phosphorylated at T545) C-1-tetrahydrofolate …: MAPAGILNGKVVSAQIRNRLKTQVTQMQEQVPGFTPGLAILQVGDRDDSNLYINVKLKAAQEIGIKATHIKLPRTSTESEVLKYVISLNEDATVHGFIVQLPLDSENSINTEAVINAIAPEKDVDGLTSINAGKLARGDLKDCFIPCTPKGCLELIKETGVQIAGRHAVVVGRSKIVGAPMHDLLLWNNATVTTCHSKTADLDKEVNKGDILVVATGQPEMVKGEWIKPGAVVIDCGINYVPDDTKPNGRKVVGDVAYDEAKEKASFITPVPGGVGPMTVAMLMQSTVESAQRFLKKFKPGKWTIQYNKLNLKTPVPSDIAISRSCKPKLIGNLAREIGLLTEEVELYGETKAKVLLSALDRLKHQPDGKYVVVTGITPTPLGEGKSTTTIGLVQALGAHLHQNVFACVRQPSQGPTFGIKGGAAGGGYSQVIPMEEFNLHLTGDIHAITAANNLVAAAIDARIFHELTQTDKALFNRLVPSVNGVRKFSDIQIRRLRRLGIEKTDPAALTDDEINRFARLDIDPETITWQRVLDTNDRFLRKITIGQAPTEKGHTRTAQFDISVASEIMAVLALTSSLEDMRARLGKMVVASSKKGEPISCEDLGVSGALTVLMKDAIKPNLMQTLEGTPVFVHAGPFANIAHGNSSIIADRIALKLVGPEGFVVTEAGFGADIGMEKFFNIKCRYSGLQPHVVVLVATVRALKMHGGGPTVTAGLPLPKAYTEEDLDLVEKGFSNLRKQIENARMFGVPVVVAMNAFKTDTDTELDLIGRLSREHGAFDAVKCTHWAEGGQGALALAQAVQRASQAPSSFQLLYDLKLSVEDKIRIIAQKIYGADDIELLPEAQNKAEIYTKQGFGNLPICMAKTHLSLSHNPEQKGVPTGFVLPIRDIRASVGAGFLYPLVGTMSTMPGLPTRPCFYDIDLDPETEQVNGLF | 3.68* | 1.48 |  | 
Pfkl pS775 (protein, UniProt P30835 2-780, looked up, phosphorylated at S775) ATP-dependent …: ATVDLEKLRMSGAGKAIGVLTSGGDAQGMNAAVRAVTRMGIYVGAKVFLIYEGYEGLVEGGENIKPANWLSVSNIIQLGGTIIGSARCKAFTTREGRLAAAYNLLQHGITNLCVIGGDGSLTGANIFRNEWGSLLEELVKEGKISESTAQNYAHLSIAGLVGSIDNDFCGTDMTIGTDSALHRIMEVIDAITTTAQSHQRTFVLEVMGRHCGYLALVSALASGADWLFIPEAPPEDGWENFMCERLGETRSRGSRLNIIIIAEGAIDRHGKPISSSYVKDLVVQRLGFDTRVTVLGHVQRGGTPSAFDRVLSSKMGMEAVMALLEATPDTPACVVSLSGNQSVRLPLMECVQVTKDVQKAMDEKRFDEAIQLRGRSFENNWKIYKLLAHQKVSKEKSNFSLAILNVGAPAAGMNAAVRSAVRTGISEGHTVYVVHDGFEGLAKGQVQEVGWHDVAGWLGRGGSMLGTKRTLPKPHLEAIVENLRTYNIHALLVIGGFEAYEGVLQLVEARGRYEELCIVMCVIPATISNNVPGTDFSLGSDTAVNAAMESCDRIKQSASGTKRRVFIVETMGGYCGYLATVTGIAVGADAAYVFEDPFNIHDLKANVEHMTEKMKTDIQRGLVLRNEKCHEHYTTEFLYNLYSSEGRGVFDCRTNVLGHLQQGGAPTPFDRNYGTKLGVKAMLWMSEKLRDVYRKGRVFANAPDSACVIGLRKKVVAFSSVTELKKETDFEHRMPREQWWLNLRLMLKMLAHYRISMADYVSGELEHVTRRTLSIDKGF |  |  | 4.1288 | 1.482
Fdx1 pS181 (protein, UniProt P24483 65-188, looked up, phosphorylated at S181) Adrenodoxin, mitochondrial: SSSEDKVTVHFKNRDGETLTTKGKVGDSLLDVVIENNLDIDGFGACEGTLACSTCHLIFEDHIYEKLDAITDEENDMLDLAFGLTNRSRLGCQVCLTKAMDNMTVRVPEAVADVRQSVDMSKNS |  |  | 5.584 | 2.723
Akap1 pS103 (protein, UniProt O88884 30-854, looked up, phosphorylated at S103) A-kinase anchor protein 1, …: KDRLSSNGKQVGTLKVGPAIEDRLPTEEACPGVLSVTPSVTQPPGKEEQRSMDRPLSDPPALPRTRQVRRRSESSGNLPSIVDTRLQAGQCSDENSKVVLSLMGDEAKSIPLGRPLFPKDLSFPYEAVEGCKQESALGRTPGRGWLSQCAASGENARETGGAEGTGDAVLGESVLEEGLLPQECVSEVEKSEFPILAPGGGGGEKVRSGPPQVDELLKKEEYIVGKLPSSFVGPVHSELVKDEGALVPQVKGSQDRSLARELDKDKTLPEKDQIEQTAFQIISQVILEATEEIRATTVGKTVAQVHPTPGTQPQGQEESCVPASQETSLGQEIPDPASTRTGATASPSAGAPPPKTYVSCLSSPLSGPTKDQKPKNSAHHISLAPCPPPVTPQRQSLDGASNPRGDDTFVTCTSNNSQSVLSVTSLGLCSDPVSTSRLEDSCTETISSSGDKAVTPPLPDSTEPFSNGVLKEELSDLGTEDGWTMDTEADHSGGSDGNSMDSVDSCCGLTKPDSPQTVQAGSNPKKVDLIIWEIEVPKHLVGRLIGKQGRYVSFLKQTSGAKIYISTLPYTQNIQICHIEGSQHHVDKALNLIGKKFKELNLTNIYAPPLPSLALPSLPMTSWLMLPDGITVEVIVVNQVNAGHLFVQQHTHPTFHALRSLDQQMYLCYSQPGIPTLPTPVEITVICAAPGADGAWWRAQVVASYEETNEVEIRYVDYGGYKRVKVDVLRQIRSDFVTLPFQGAEVLLDSVVPLSDDDHFSPEADAAMSEMTGNTALLAQVTSYSATGLPLIQLWSVVGDEVVLINRSLVERGLAQWVDSCYASL |  |  | 1.156 | 0.8425
Lrpap1 pS245 (protein, UniProt Q99068 34-360, looked up, phosphorylated at S245) Alpha-2-macroglobulin …: HGGKYSREKNEPEMAAKRESGEEFRMEKLNQLWEKAKRLHLSPVRLAELHSDLKIQERDELNWKKLKVEGLDGDGEKEAKLVHNLNVILARYGLDGRKDTQTVHSNALNEDTQDELGDPRLEKLWHKAKTSGKFSSEELDKLWREFLHYKEKIHEYNVLLDTLSRAEEGYENLLSPSDMTHIKSDTLASKHSELKDRLRSINQGLDRLRKVSHQGYGPATEFEEPRVIDLWDLAQSANFTEKELESFREELKHFEAKIEKHNHYQKQLEISHQKLKHVESIGDPEHISRNKEKYVLLEEKTKELGYKVKKHLQDLSSRVSRARHNEL |  |  | 2.6435 | 0.3181
Atp5a1 pS184 (protein, UniProt P15999 44-553, looked up, phosphorylated at S184) ATP synthase F(1) complex …: QKTGTAEMSSILEERILGADTSVDLEETGRVLSIGDGIARVHGLRNVQAEEMVEFSSGLKGMSLNLEPDNVGVVVFGNDKLIKEGDIVKRTGAIVDVPVGDELLGRVVDALGNAIDGKGPVGSKIRRRVGLKAPGIIPRISVREPMQTGIKAVDSLVPIGRGQRELIIGDRQTGKTSIAIDTIINQKRFNDGTDEKKKLYCIYVAIGQKRSTVAQLVKRLTDADAMKYTIVVSATASDAAPLQYLAPYSGCSMGEYFRDNGKHALIIYDDLSKQAVAYRQMSLLLRRPPGREAYPGDVFYLHSRLLERAAKMNDSFGGGSLTALPVIETQAGDVSAYIPTNVISITDGQIFLETELFYKGIRPAINVGLSVSRVGSAAQTRAMKQVAGTMKLELAQYREVAAFAQFGSDLDAATQQLLSRGVRLTELLKQGQYSPMAIEEQVAVIYAGVRGYLDKLEPSKITKFESAFLSHVVSQHQSLLGNIRSDGKISEQSDAKLKEIVTNFLAGFEP |  |  | 3.438 | 1.986

— publication PMC5095173, “Disulfide-activated protein kinase G Iα regulates cardiac diastolic relaxation and fine-tunes the Frank–Starling response” (Nature Communications, 2016)
